According to US20250320281A1:

Legend:
[1] = target: HIV-1 94UG103 Env (pseudovirus) (HIV-1); test: cell-based or functional assay
[2] = target: HIV-1 92UG024 Env (pseudovirus) (HIV-1); test: cell-based or functional assay
[3] = target: HIV-1 93IN905 Env (pseudovirus) (HIV-1); test: cell-based or functional assay
[4] = target: HIV-1 MGRM-A-010 Env (pseudovirus) (HIV-1); test: cell-based or functional assay
[5] = target: HIV-1 CMU02 Env (pseudovirus) (HIV-1); test: cell-based or functional assay
[6] = target: HIV-1 Env of pseudovirus isolate MGRM-G-015 (HIV-1); test: cell-based or functional assay
[7] = target: HIV-1 Env of pseudovirus isolate MGRM-G-009 (HIV-1); test: cell-based or functional assay
[8] = target: HIV-1 92UG005 Env (pseudovirus) (HIV-1); test: cell-based or functional assay
[9] = target: HIV-1 92RW020 Env (pseudovirus) (HIV-1); test: cell-based or functional assay
[10] = target: HIV-1 Env of isolate MGRM-C-008 (HIV-1); test: cell-based or functional assay
[11] = target: HIV-1 Env of isolate MGRM-C-023 (HIV-1); test: cell-based or functional assay
[12] = target: HIV-1 Env of isolate MGRM-C-017 (HIV-1); test: cell-based or functional assay
[13] = target: HIV-1 Env of isolate MGRM-C-019 (HIV-1); test: cell-based or functional assay
[14] = target: HIV-1 Env of isolate MGRM-C-006 (HIV-1); test: cell-based or functional assay
[15] = target: HIV-1 Env of isolate MGRM-C-002 (HIV-1); test: cell-based or functional assay
[16] = target: HIV-1 Env of pseudovirus isolate MGRM-G-017 (HIV-1); test: cell-based or functional assay
[17] = target: HIV-1 JRCSF Env (pseudovirus) (HIV-1) (UniProt P20871); test: cell-based or functional assay
[18] = target: HIV-1 Env of pseudovirus isolate MGRM-G-019 (HIV-1); test: cell-based or functional assay
[19] = target: HIV-1 Env of pseudovirus isolate MGRM-G-001 (HIV-1); test: cell-based or functional assay
[20] = target: HIV-1 Env of pseudovirus isolate MGRM-G-014 (HIV-1); test: cell-based or functional assay
[21] = target: HIV-1 Env of isolate MGRM-C-022 (HIV-1); test: cell-based or functional assay
[22] = target: HIV-1 Env of isolate MGRM-C-013 (HIV-1); test: cell-based or functional assay
[23] = target: HIV-1 NL43 Env (pseudovirus) (HIV-1); test: cell-based or functional assay
[24] = target: HIV-1 Env of pseudovirus isolate MGRM-G-004 (HIV-1); test: cell-based or functional assay
[25] = target: HIV-1 Env of pseudovirus isolate MGRM-G-011 (HIV-1); test: cell-based or functional assay
[26] = target: HIV-1 Env of pseudovirus isolate MGRM-G-006 (HIV-1); test: cell-based or functional assay
[27] = target: HIV-1 Env of isolate MGRM-C-010 (HIV-1); test: cell-based or functional assay
[28] = target: HIV-1 MGRM-C-026 Env (pseudovirus) (HIV-1); test: cell-based or functional assay
[29] = target: HIV-1 Env of isolate MGRM-C-004 (HIV-1); test: cell-based or functional assay
[30] = target: HIV-1 Env of isolate MGRM-C-012 (HIV-1); test: cell-based or functional assay
[31] = target: HIV-1 Env of isolate MGRM-C-020 (HIV-1); test: cell-based or functional assay
[32] = target: HIV-1 Env of pseudovirus isolate MGRM-G-027 (HIV-1); test: cell-based or functional assay
[33] = target: HIV-1 Env of isolate MGRM-C-007 (HIV-1); test: cell-based or functional assay
[34] = target: HIV-1 APV6 Env (pseudovirus) (HIV-1); test: cell-based or functional assay
[35] = target: HIV-1 Env of isolate MGRM-C-009 (HIV-1); test: cell-based or functional assay
[36] = target: HIV-1 Env of isolate MGRM-C-014 (HIV-1); test: cell-based or functional assay
[37] = target: HIV-1 Env of isolate MGRM-C-024 (HIV-1); test: cell-based or functional assay
[38] = target: HIV-1 MGRM-C-027 Env (pseudovirus) (HIV-1); test: cell-based or functional assay
[39] = target: HIV-1 92TH021 Env (pseudovirus) (HIV-1); test: cell-based or functional assay
[40] = target: HIV-1 MGRM-D-018 Env (pseudovirus) (HIV-1); test: cell-based or functional assay
[41] = target: HIV-1 Env of pseudovirus isolate MGRM-G-013 (HIV-1); test: cell-based or functional assay
[42] = target: HIV-1 Env of isolate MGRM-C-001 (HIV-1); test: cell-based or functional assay
[43] = target: HIV-1 Env of isolate MGRM-C-025 (HIV-1); test: cell-based or functional assay
[44] = target: HIV-1 Env of isolate MGRM-C-015 (HIV-1); test: cell-based or functional assay
[45] = target: envelope of aMLV pseudovirus (negative control); test: cell-based or functional assay
[46] = target: HIV-1 MGRM-C-028 Env (pseudovirus) (HIV-1); test: cell-based or functional assay
[47] = target: HIV-1 Env of pseudovirus isolate MGRM-G-016 (HIV-1); test: cell-based or functional assay
[48] = target: HIV-1 Env of isolate MGRM-C-005 (HIV-1); test: cell-based or functional assay
[49] = target: WT JR-FL gp120 (HIV-1); test: ELISA, antigen-coated wells

In the case of 5123_A06 (PGT-125) (antibody), the neutralization IC50 (pseudovirus) [1] is reported as 0.0124 µg/mL, the neutralization IC50 (pseudovirus) [2] is reported as greater than 10 µg/mL and the neutralization IC50 (pseudovirus) [3] is reported as 0.0137 µg/mL. For the same substance, the neutralization IC50 (pseudovirus) [4] was 0.0055 µg/mL, the neutralization IC50 (pseudovirus) [5] was greater than 10 µg/mL and the IC50 (µg/mL), pseudovirus neutralization [6] was greater than 50 µg/mL. The IC50 (µg/mL), pseudovirus neutralization [7] was greater than 50 µg/mL, the neutralization IC50 (pseudovirus) [8] was greater than 10 µg/mL and the neutralization IC50 (pseudovirus) [9] was 0.0028 µg/mL. The neutralization IC50 [10] was greater than 50 µg/mL, the neutralization IC50 [11] was 1.31 µg/mL and the neutralization IC50 [12] was 2.36 µg/mL. It also gave a neutralization IC50 [13] of 0.13 µg/mL, a neutralization IC50 [14] of 0.015 µg/mL and a neutralization IC50 [15] of 0.008 µg/mL. For the same substance, the IC50 (µg/mL), pseudovirus neutralization [16] was greater than 50 µg/mL, the neutralization IC50 (pseudovirus) [17] was 0.006 µg/mL and the IC50 (µg/mL), pseudovirus neutralization [18] was greater than 50 µg/mL. For the same substance, the IC50 (µg/mL), pseudovirus neutralization [19] was 0.033 µg/mL, the IC50 (µg/mL), pseudovirus neutralization [20] was 0.007 µg/mL and the neutralization IC50 [21] was 1.23 µg/mL. It also gave a neutralization IC50 [22] greater than 50 µg/mL, a neutralization IC50 (pseudovirus) [23] greater than 10 µg/mL and an IC50 (µg/mL), pseudovirus neutralization [24] greater than 50 µg/mL. For the same substance, the IC50 (µg/mL), pseudovirus neutralization [25] was greater than 50 µg/mL, the IC50 (µg/mL), pseudovirus neutralization [26] was greater than 50 µg/mL and the neutralization IC50 [27] was greater than 50 µg/mL. The neutralization IC50 (pseudovirus) [28] was 0.0106 µg/mL, the neutralization IC50 [29] was 1.82 µg/mL and the neutralization IC50 [30] was greater than 50 µg/mL. It also gave a neutralization IC50 [31] greater than 50 µg/mL, an IC50 (µg/mL), pseudovirus neutralization [32] of 34.4 µg/mL and a neutralization IC50 [33] greater than 50 µg/mL. It also gave a neutralization IC50 (pseudovirus) [34] of 0.0359 µg/mL, a neutralization IC50 [35] greater than 50 µg/mL and a neutralization IC50 [36] greater than 50 µg/mL. For the same substance, the neutralization IC50 [37] was greater than 50 µg/mL, the neutralization IC50 (pseudovirus) [38] was greater than 10 µg/mL and the neutralization IC50 (pseudovirus) [39] was 0.0066 µg/mL. It also gave a neutralization IC50 (pseudovirus) [40] of 0.0382 µg/mL, an IC50 (µg/mL), pseudovirus neutralization [41] greater than 50 µg/mL and a neutralization IC50 [42] greater than 50 µg/mL. It also gave a neutralization IC50 [43] of 42.5 µg/mL, a neutralization IC50 [44] greater than 50 µg/mL and an IC50 (µg/mL), pseudovirus neutralization [45] greater than 50 µg/mL. For the same substance, the neutralization IC50 (pseudovirus) [46] was 5.78 µg/mL, the IC50 (µg/mL), pseudovirus neutralization [47] was greater than 50 µg/mL and the neutralization IC50 [48] was 2.09 µg/mL. For the same substance, the EC50 [49] was 0.2 µg/mL.

For 5141_B17 (PGT-126) (antibody), the neutralization IC50 (pseudovirus) [1] was 0.0091 µg/mL, the neutralization IC50 (pseudovirus) [2] was greater than 10 µg/mL and the neutralization IC50 (pseudovirus) [3] was 0.0194 µg/mL. For the same substance, the neutralization IC50 (pseudovirus) [4] was 0.0033 µg/mL, the neutralization IC50 (pseudovirus) [5] was greater than 10 µg/mL and the IC50 (µg/mL), pseudovirus neutralization [6] was greater than 50 µg/mL. It also gave an IC50 (µg/mL), pseudovirus neutralization [7] greater than 50 µg/mL, a neutralization IC50 (pseudovirus) [8] of 0.0181 µg/mL and a neutralization IC50 (pseudovirus) [9] of 0.0046 µg/mL. The neutralization IC50 [10] was 2.12 µg/mL, the neutralization IC50 [11] was 0.065 µg/mL and the neutralization IC50 [12] was 0.17 µg/mL. It also gave a neutralization IC50 [13] of 0.006 µg/mL, a neutralization IC50 [14] of 0.014 µg/mL and a neutralization IC50 [15] of 0.011 µg/mL. For the same substance, the IC50 (µg/mL), pseudovirus neutralization [16] was greater than 50 µg/mL, the neutralization IC50 (pseudovirus) [17] was 0.0061 µg/mL and the IC50 (µg/mL), pseudovirus neutralization [18] was 0.018 µg/mL. For the same substance, the IC50 (µg/mL), pseudovirus neutralization [19] was 0.038 µg/mL, the IC50 (µg/mL), pseudovirus neutralization [20] was 0.009 µg/mL and the neutralization IC50 [21] was 0.96 µg/mL. It also gave a neutralization IC50 [22] greater than 50 µg/mL, a neutralization IC50 (pseudovirus) [23] greater than 10 µg/mL and an IC50 (µg/mL), pseudovirus neutralization [24] greater than 50 µg/mL. It also gave an IC50 (µg/mL), pseudovirus neutralization [25] of 7.32 µg/mL, an IC50 (µg/mL), pseudovirus neutralization [26] greater than 50 µg/mL and a neutralization IC50 [27] greater than 50 µg/mL. The neutralization IC50 (pseudovirus) [28] was 0.0076 µg/mL, the neutralization IC50 [29] was 0.033 µg/mL and the neutralization IC50 [30] was 0.111 µg/mL. For the same substance, the neutralization IC50 [31] was greater than 50 µg/mL, the IC50 (µg/mL), pseudovirus neutralization [32] was 0.875 µg/mL and the neutralization IC50 [33] was 25.3 µg/mL. The neutralization IC50 (pseudovirus) [34] was 0.0249 µg/mL, the neutralization IC50 [35] was greater than 50 µg/mL and the neutralization IC50 [36] was greater than 50 µg/mL. It also gave a neutralization IC50 [37] greater than 50 µg/mL, a neutralization IC50 (pseudovirus) [38] of 1.14 µg/mL and a neutralization IC50 (pseudovirus) [39] of 0.115 µg/mL. For the same substance, the neutralization IC50 (pseudovirus) [40] was 0.0093 µg/mL, the IC50 (µg/mL), pseudovirus neutralization [41] was 48.8 µg/mL and the neutralization IC50 [42] was greater than 50 µg/mL. It also gave a neutralization IC50 [43] of 0.786 µg/mL, a neutralization IC50 [44] of 3.14 µg/mL and an IC50 (µg/mL), pseudovirus neutralization [45] greater than 50 µg/mL. The neutralization IC50 (pseudovirus) [46] was 0.283 µg/mL, the IC50 (µg/mL), pseudovirus neutralization [47] was greater than 50 µg/mL and the neutralization IC50 [48] was 0.298 µg/mL. It also gave an EC50 [49] of 0.1 µg/mL.
